From US20120021972A1 (CADILA HEALTHCARE, published 2012)
Non-standard residues stand in square brackets, D forms with d. No end group written: not given here. 2CF3‑APPA = 2-amino-5-(2-(trifluoromethyl)phenyl)pentanoic acid; Bip(2'-Et-4'-OMe) = CCc1cc(OC)ccc1-c1ccc(C[C@H](N)C(=O)O)cc1; Nva(5-(3,5-Me2Ph)) = Cc1cc(C)cc(CCC[C@H](N)C(=O)O)c1; 2F‑APPA = 2-amino-5-(2-fluorophenyl)pentanoic acid; αMePhe(2-F) = C[C@](N)(Cc1ccccc1F)C(=O)O; CNB = not defined here; Aib = CC(C)(N)C(=O)O

How the values were obtained:
Experiment in all cases: cell-based or functional assay
human GLP-1 receptor [1] = biological target: T1, human GLP-1 receptor (human, UniProt P43220 24-463)
human glucagon receptor = human glucagon receptor (human, UniProt P47871 26-477)
human GLP-1 receptor [2] = biological target: T1, human GLP-1 receptor; remark: listed apart in the source

T1 sequence (P43220 24-463): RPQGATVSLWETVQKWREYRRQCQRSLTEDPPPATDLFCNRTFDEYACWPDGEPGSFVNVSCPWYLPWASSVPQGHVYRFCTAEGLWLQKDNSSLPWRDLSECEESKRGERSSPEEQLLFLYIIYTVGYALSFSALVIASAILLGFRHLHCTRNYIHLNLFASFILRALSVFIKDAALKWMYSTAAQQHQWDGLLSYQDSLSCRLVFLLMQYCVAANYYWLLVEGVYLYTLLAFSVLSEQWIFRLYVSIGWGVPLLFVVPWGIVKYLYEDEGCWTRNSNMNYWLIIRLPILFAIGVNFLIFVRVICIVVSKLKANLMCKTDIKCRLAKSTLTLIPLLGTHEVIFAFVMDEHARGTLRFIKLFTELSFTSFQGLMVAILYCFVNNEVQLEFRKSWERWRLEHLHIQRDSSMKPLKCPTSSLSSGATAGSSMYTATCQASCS

cAMP release, % activity, 1 nM (human GLP-1 receptor [1]) [%] | cAMP release, % activity, 10 nM (human GLP-1 receptor [1]) [%] | cAMP release, % activity, 100 nM (human GLP-1 receptor [1]) [%] | cAMP release, % activity, 1 µM (human GLP-1 receptor [1]) [%] | cAMP release, % activity, 10 µM (human GLP-1 receptor [1]) [%] | inhibition of cAMP production, 1 nM (human glucagon receptor) [pmol/ml/µg prt] | inhibition of cAMP production, 10 nM (human glucagon receptor) [pmol/ml/µg prt] | inhibition of cAMP production, 100 nM (human glucagon receptor) [pmol/ml/µg prt] | inhibition of cAMP production, 1 µM (human glucagon receptor) [pmol/ml/µg prt] | inhibition of cAMP production, 10 µM (human glucagon receptor) [pmol/ml/µg prt] | EC50, cAMP, H GLP-1 R assay (human GLP-1 receptor [2]) [pM] | Binder
62 | 94 | 99 | 99 | 99 | 6 | 5 | 2 | 0 | 0 | – | H[Aib][CNB]GTFTSD[Bip(2'-Et-4'-OMe)][2CF3‑APPA] (reading uncertain) [Seq. ID. No. 79: H-Aib-(CNB)-GTFTSD-Bip(OMe)-(2CF3-APPA)]
40 | 81 | 87 | 95 | 98 | 20 | 18 | 16 | 14 | 12 | – | H[Aib][CNB]GTFTSD[Bip(2'-Et-4'-OMe)][2F‑APPA] (reading uncertain) [Seq. ID. No. 77: H-Aib-(CNB)-GTFTSD-Bip(OMe)-(2F-APPA)]
– | – | – | – | – | – | – | – | – | – | 340 | H[Aib]QGT[αMePhe(2-F)]TSD[Bip(2'-Et-4'-OMe)][Nva(5-(3,5-Me2Ph))] [Seq. ID. No. 38: H-Aib-QGT-(α-Me-2F-Phe)-TSD-Bip(OMe)-(ADMP)]
